According to patent publication US20220332804A1 (CSL INNOVATION, published 2022):
Positions count from the first letter of the chain named.

What was measured:
Experiment in all cases: SPR; KD relative to WT C2;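 further: biacore SPR at 37 °C, anti-C2 mAbs captured on an anti-human IgG chip, alanine or serine C2 surface mutants tested, KD from 1:1 fit compared with wild-type C2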
human C2 E267A = molecular target: T1, human C2 E267A (human, UniProt P06681 21-752)
T1 sequence: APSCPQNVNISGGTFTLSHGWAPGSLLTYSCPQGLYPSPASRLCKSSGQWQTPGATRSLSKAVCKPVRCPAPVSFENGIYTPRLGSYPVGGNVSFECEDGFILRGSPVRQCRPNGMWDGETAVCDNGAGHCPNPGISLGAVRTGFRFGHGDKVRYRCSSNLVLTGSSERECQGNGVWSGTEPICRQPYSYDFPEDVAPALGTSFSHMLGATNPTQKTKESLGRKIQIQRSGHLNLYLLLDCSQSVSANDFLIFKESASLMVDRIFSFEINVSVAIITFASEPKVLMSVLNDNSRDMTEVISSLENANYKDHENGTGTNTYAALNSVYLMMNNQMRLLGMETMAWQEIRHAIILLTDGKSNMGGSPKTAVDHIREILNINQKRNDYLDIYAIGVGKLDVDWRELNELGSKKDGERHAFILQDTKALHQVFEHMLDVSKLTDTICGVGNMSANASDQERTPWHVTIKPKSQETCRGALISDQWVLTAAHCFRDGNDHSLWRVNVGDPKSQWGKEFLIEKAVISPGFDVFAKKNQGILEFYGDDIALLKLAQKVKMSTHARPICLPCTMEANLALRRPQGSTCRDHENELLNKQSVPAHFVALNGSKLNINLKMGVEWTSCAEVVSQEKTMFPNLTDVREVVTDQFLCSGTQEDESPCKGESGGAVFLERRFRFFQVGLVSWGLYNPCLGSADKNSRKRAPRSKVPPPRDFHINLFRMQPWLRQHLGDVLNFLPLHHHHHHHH

human C2 L279A = molecular target: T2, human C2 L279A (human, UniProt P06681 21-752)
T2 sequence: T1 sequence with A247E, L259A

human C2 Q447A = molecular target: T3, human C2 Q447A (human, UniProt P06681 21-752)
T3 sequence: T1 sequence with A247E, Q427A

human C2 K244A = molecular target: T4, human C2 K244A (human, UniProt P06681 21-752)
T4 sequence: T1 sequence with K224A, A247E

B1: RF16-214 (antibody, V domains shown)
VH: EVQLLESGGGLVQPGGSLRLSCAASGFTFSWYQMMWVRQAPGKGLEWVSRIYPSGGGTAYADSVKGRFTISRDNSKNTLYLQMNSLRAEDTAVYYCARDAGYGDNWGQGTLVTVSS
VL: QSALTQPPSVSVSPGQTASITCSGDKLGEKYASWYQQKAGQSPVMVIYQDRKRPSGIPERFSGSNSGNTATLTISGTQAMDEADYYCQAWDTRAVVFGGGTKLTVLG
- Fold diff (human C2 E267A): 1 fold
- Fold diff (human C2 L279A): 8 fold
- Fold diff (human C2 Q447A): 4 fold
- Fold diff (human C2 K244A): 3 fold
